Test results published in paper PMC8282340.
pKd: −log10 of the molar value.

Tests used:
[1] = molecular target: NOXA peptide fused to the C-terminal half of T7 RNAP; assay: luciferase assay; details: parent: est. 1.0; read off a plot
[2] = molecular target: fluorescent BID peptide (human); assay: FP; details: natural protein
[3] = molecular target: fluorescent NOXA peptide (human); assay: FP; details: natural protein
fluorescent NOXA peptide (human), sequence (Q13794 19-43): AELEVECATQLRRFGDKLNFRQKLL

human MCL-1 fused to the N-terminal half of T7 RNAP, sequence (Q07820 whole entry, the tested form may be a part): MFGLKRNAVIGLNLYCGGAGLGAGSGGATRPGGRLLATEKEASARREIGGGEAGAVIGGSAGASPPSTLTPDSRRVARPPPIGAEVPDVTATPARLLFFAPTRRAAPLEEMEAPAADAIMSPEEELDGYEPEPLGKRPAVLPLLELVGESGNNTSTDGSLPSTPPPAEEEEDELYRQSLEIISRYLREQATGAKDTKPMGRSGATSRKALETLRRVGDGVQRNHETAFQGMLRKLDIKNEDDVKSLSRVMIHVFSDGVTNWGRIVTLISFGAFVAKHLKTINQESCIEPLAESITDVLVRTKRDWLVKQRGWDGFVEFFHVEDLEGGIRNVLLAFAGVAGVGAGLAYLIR
fluorescent BID peptide (human), sequence (P55957 79-99): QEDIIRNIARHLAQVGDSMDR

Substance | ratio to parent [1] | pKd [2] | pKd [3]
human MCL-1 fused to the N-terminal half of T7 RNAP g202N; d263A | 0.84 | – | –
human MCL-1 fused to the N-terminal half of T7 RNAP v189G | 3.8 | – | –
human MCL-1 fused to the N-terminal half of T7 RNAP | – | 7.83 | 8.01

The remaining lines, values ahead:

ratio to parent [1] | pKd [2] | pKd [3] | Substance
3.8 | – | – | human MCL-1 fused to the N-terminal half of T7 RNAP n200S; f258V
1.1 | – | – | human MCL-1 fused to the N-terminal half of T7 RNAP a167T; g202S
